Patent publication US20250263754

Target: T1, HRBP (1-81), amino acids 1 to 81 of the Nogo-B receptor (NgBR) family protein HRBP from Hevea brasiliensis
T1 chain: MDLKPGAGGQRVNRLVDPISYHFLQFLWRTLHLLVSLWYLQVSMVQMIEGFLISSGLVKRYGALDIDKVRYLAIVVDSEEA

B1: LDAP1-linker-HRT1 fusion protein (protein)
chain: MAEADAKLQNDTVQEDEVTTLKYLEFVQIAAVHAVVIVSSIYDFAKDNSGPLKPGVQTVEGTVKTVMSPVYEKIQDIPLELLKFADRKVDGFVQEVDRHVPVLVKQASSQAFSAAHRAPEVARSIKSELNRVGVVDTATEMTKAAYATLEPTAKDLYIRYEPVAEHYAVSAWRSLNRLPLFSEVAHIVVPTAAYWTDKYNKGVRYMEVKGFGVASYMPLVPTERIAKVFGEREEEIVLEMSPMTTSEVVNTGNSADGGGGSGGSGGSGGGSTQGGFLALLNVLTYCYELGVKYATIYAFSIDNFRRKPHEVQYVMDLMLEKIEGMIMEESIINAYDICVRFVGNLKLLSEPVKTAADKIMRATANNSKCVLLIAVCYTSTDEIVHAVEESSELNSNEVCNNQELEEANATGSGTVIQIENMESYSGIKLVDLEKNTYINPYPDVLIRTSGETRLSNYLLWQTTNCILYSPHALWPEIGLRHVVWAVINFQRHYSYLEKHKEYLK
- Enzymatic activity (prenyl chain elongation, radioactivity of [4-14C]IPP incorporated, dpm): 837 dpm

B2: HRT1-linker-LDAP1 fusion protein (protein)
chain: GFLALLNVLTYCYELGVKYATIYAFSIDNFRRKPHEVQYVMDLMLEKIEGMIMEESIINAYDICVRFVGNLKLLSEPVKTAADKIMRATANNSKCVLLIAVCYTSTDEIVHAVEESSELNSNEVCNNQELEEANATGSGTVIQIENMESYSGIKLVDLEKNTYINPYPDVLIRTSGETRLSNYLLWQTTNCILYSPHALWPEIGLRHVVWAVINFQRHYSYLEKHKEYLKTGNSADGGGGSGGSGGSGGGSTQGMAEADAKLQNDTVQEDEVTTLKYLEFVQIAAVHAVVIVSSIYDFAKDNSGPLKPGVQTVEGTVKTVMSPVYEKIQDIPLELLKFADRKVDGFVQEVDRHVPVLVKQASSQAFSAAHRAPEVARSIKSELNRVGVVDTATEMTKAAYATLEPTAKDLYIRYEPVAEHYAVSAWRSLNRLPLFSEVAHIVVPTAAYWTDKYNKGVRYMEVKGFGVASYMPLVPTERIAKVFGEREEEIVLEMSPMTTSEVVN
- Enzymatic activity (prenyl chain elongation, radioactivity of [4-14C]IPP incorporated, dpm): 900 dpm
